Experimental data taken from patent US20150246949A1, “Desmoglein 2 (DSG2) Binding Proteins and Uses Therefor” (UNIVERSITY OF WASHINGTON THROUGH ITS CENTER FOR …, priority 2012, published 2015).

How the values were obtained:
[1] = molecular target: T1, Recombinant human DSG2 protein (Leinco Technologies) (human, UniProt Q14126 50-609); test: SPR (BIAcore 3000), DSG2 immobilised on the sensor chip, knobs injected at 2.5 to 10 µg/ml, BIAeval
T1 construct: also called soluble DSG2; soluble recombinant DSG2
T1 sequence: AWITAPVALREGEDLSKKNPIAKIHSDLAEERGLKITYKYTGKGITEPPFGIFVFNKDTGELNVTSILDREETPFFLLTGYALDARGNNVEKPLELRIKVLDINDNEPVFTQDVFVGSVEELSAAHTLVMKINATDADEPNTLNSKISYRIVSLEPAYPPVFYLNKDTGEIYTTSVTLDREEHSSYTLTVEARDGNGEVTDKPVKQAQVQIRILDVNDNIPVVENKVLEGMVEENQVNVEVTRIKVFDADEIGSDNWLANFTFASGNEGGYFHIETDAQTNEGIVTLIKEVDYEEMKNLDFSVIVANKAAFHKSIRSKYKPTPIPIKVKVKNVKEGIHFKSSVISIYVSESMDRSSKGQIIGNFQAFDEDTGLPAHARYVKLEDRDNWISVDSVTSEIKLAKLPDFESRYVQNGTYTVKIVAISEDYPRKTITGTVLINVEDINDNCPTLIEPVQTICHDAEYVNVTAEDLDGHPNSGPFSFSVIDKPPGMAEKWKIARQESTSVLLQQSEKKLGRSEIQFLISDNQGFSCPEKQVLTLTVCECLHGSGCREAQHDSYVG

[2] = molecular target: T1, Recombinant human DSG2 protein (Leinco …); test: Western blot of dimeric knob (trimer band), soluble recombinant DSG2 as probe, anti-DSG2 mAb
[3] = molecular target: T2, human DSG2 on cells (HeLa cells; polarized T84 cells) (human, UniProt Q14126 50-1118); test: attachment of 3H-labelled Ad3 virus (competitor) to HeLa cells pre-incubated with the dimeric knob
T2 construct: whole, on cells; also called HeLa cells, which express DSG2
T2 sequence: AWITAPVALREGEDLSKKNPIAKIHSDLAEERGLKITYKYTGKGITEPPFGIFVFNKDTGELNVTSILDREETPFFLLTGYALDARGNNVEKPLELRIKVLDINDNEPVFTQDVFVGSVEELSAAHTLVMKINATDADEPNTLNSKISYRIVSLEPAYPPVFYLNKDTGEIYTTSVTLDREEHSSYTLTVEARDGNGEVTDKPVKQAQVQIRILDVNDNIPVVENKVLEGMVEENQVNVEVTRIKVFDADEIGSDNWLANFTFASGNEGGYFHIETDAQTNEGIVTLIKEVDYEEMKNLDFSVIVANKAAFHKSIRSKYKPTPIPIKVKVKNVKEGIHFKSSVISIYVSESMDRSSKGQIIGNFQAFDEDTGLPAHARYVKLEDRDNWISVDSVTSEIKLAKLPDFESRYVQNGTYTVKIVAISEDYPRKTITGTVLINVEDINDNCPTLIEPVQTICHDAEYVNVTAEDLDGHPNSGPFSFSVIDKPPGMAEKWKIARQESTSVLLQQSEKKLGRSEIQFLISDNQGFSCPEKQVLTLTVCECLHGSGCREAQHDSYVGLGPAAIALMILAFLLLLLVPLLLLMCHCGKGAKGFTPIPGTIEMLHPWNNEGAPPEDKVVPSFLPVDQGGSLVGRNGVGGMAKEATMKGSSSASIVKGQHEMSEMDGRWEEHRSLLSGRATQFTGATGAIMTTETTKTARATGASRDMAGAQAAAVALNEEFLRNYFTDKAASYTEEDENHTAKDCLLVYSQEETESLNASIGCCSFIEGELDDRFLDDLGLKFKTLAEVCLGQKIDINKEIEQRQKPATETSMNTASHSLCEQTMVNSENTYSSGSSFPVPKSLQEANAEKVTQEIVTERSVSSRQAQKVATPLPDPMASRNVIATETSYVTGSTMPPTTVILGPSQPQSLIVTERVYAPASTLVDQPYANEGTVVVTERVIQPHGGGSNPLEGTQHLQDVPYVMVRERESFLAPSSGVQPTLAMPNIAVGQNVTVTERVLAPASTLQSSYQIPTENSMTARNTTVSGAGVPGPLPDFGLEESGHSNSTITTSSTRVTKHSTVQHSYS

[4] = molecular target: T2, human DSG2 on cells (HeLa cells; …); test: cell-based or functional assay

Binder | Kd [1] [nM] | koff [1] [s⁻¹] | kon [1] [M⁻¹ s⁻¹] | Western blot residual DSG2 binding (wtAd3 knob = 100%) [2] [%] | Inhibition of attachment in the presence of dimeric knob (JO-1 = 100%) [3] [%] | Inhibition of infection in the presence of dimeric knob (JO-1 = 100%) [4] [%]
Ad3 fiber knob mutant E248G+K258E without dimerization domain (ligand, range 108-319; not shown: N-terminal 6-His tag of pQE30 and linker) NKLCSKLGNGLTFDSSNSIALKNNTLWTGPKPEANCIIEYGKQNPDSKLTLILVKNGGIVNGYVTLMGASDYVNTLFKNKNVSINVELYFDATGHILPDSSSLKTDLELKYKQTADFSARGFMPSTTAYPFVLPNAGTHNGNYIFGQCYYEASDGALFPLEVTVMLNKRLPDSRTSYVMTFLWSLNAGLAPETTQATLITSPFTFSYIREDD | 49.4 | 0.00147 | 29800 | – | – | –
Ad3 fiber knob mutant K217E+F224S without dimerization domain (ligand, range 108-319; also called K217E/F224S mutant (non-dimerized form); not shown: N-terminal 6-His tag of pQE30 and linker) NKLCSKLGNGLTFDSSNSIALKNNTLWTGPKPEANCIIEYGKQNPDSKLTLILVKNGGIVNGYVTLMGASDYVNTLFKNKNVSINVELYFDATGHILPDSSSLKTDLELEYKQTADSSARGFMPSTTAYPFVLPNAGTHNENYIFGQCYYKASDGALFPLEVTVMLNKRLPDSRTSYVMTFLWSLNAGLAPETTQATLITSPFTFSYIREDD | 53.9 | 0.00317 | 58800 | – | – | –
Ad3 fiber knob mutant F224L without dimerization domain (ligand, range 108-319; not shown: N-terminal 6-His tag of pQE30 and linker) NKLCSKLGNGLTFDSSNSIALKNNTLWTGPKPEANCIIEYGKQNPDSKLTLILVKNGGIVNGYVTLMGASDYVNTLFKNKNVSINVELYFDATGHILPDSSSLKTDLELKYKQTADLSARGFMPSTTAYPFVLPNAGTHNENYIFGQCYYKASDGALFPLEVTVMLNKRLPDSRTSYVMTFLWSLNAGLAPETTQATLITSPFTFSYIREDD | 78.7 | 0.00269 | 34200 | – | – | –
Ad3 fiber knob mutant N293S without dimerization domain (ligand, range 108-319; also called N293S/noDD; not shown: N-terminal 6-His tag of pQE30 and linker) NKLCSKLGNGLTFDSSNSIALKNNTLWTGPKPEANCIIEYGKQNPDSKLTLILVKNGGIVNGYVTLMGASDYVNTLFKNKNVSINVELYFDATGHILPDSSSLKTDLELKYKQTADFSARGFMPSTTAYPFVLPNAGTHNENYIFGQCYYKASDGALFPLEVTVMLNKRLPDSRTSYVMTFLWSLSAGLAPETTQATLITSPFTFSYIREDD | 73.2 | 8.7e-05 | 1190 | – | – | –
dimeric Ad3 fiber knob mutant D261N, L296R (designed binder, also called D261, L296R; combination of D261N and L296R) MKVSALKEKVSALKEKVSALKEKVSALKEKVSALKEGSGGGSGGGSGGGSNSIALKNNTLWTGPKPEANCIIEYGKQNPDSKLTLILVKNGGIVNGYVTLMGASDYVNTLFKNKNVSINVELYFDATGHILPDSSSLKTDLELKYKQTADFSARGFMPSTTAYPFVLPNAGTHNENYIFGQCYYKASNGALFPLEVTVMLNKRLPDSRTSYVMTFLWSLNAGRAPETTQATLITSPFTFSYIREDD | – | – | – | 7 | 20.1 | 1.5
dimeric Ad3 fiber knob mutant N186D, D261N, L296R (designed binder, also called mutant with mutations in all three areas (N185, D261, L296)) MKVSALKEKVSALKEKVSALKEKVSALKEKVSALKEGSGGGSGGGSGGGSNSIALKNNTLWTGPKPEANCIIEYGKQNPDSKLTLILVKNGGIVNGYVTLMGASDYVNTLFKDKNVSINVELYFDATGHILPDSSSLKTDLELKYKQTADFSARGFMPSTTAYPFVLPNAGTHNENYIFGQCYYKASNGALFPLEVTVMLNKRLPDSRTSYVMTFLWSLNAGRAPETTQATLITSPFTFSYIREDD | – | – | – | 0 | – | –
dimeric Ad3 fiber knob mutant N186D (designed binder) MKVSALKEKVSALKEKVSALKEKVSALKEKVSALKEGSGGGSGGGSGGGSNSIALKNNTLWTGPKPEANCIIEYGKQNPDSKLTLILVKNGGIVNGYVTLMGASDYVNTLFKDKNVSINVELYFDATGHILPDSSSLKTDLELKYKQTADFSARGFMPSTTAYPFVLPNAGTHNENYIFGQCYYKASDGALFPLEVTVMLNKRLPDSRTSYVMTFLWSLNAGLAPETTQATLITSPFTFSYIREDD | – | – | – | 5.3 | 56.5 | 32.7
dimeric Ad3 fiber knob mutant N186D, D261N (designed binder, also called combination of N186D and D261N) MKVSALKEKVSALKEKVSALKEKVSALKEKVSALKEGSGGGSGGGSGGGSNSIALKNNTLWTGPKPEANCIIEYGKQNPDSKLTLILVKNGGIVNGYVTLMGASDYVNTLFKDKNVSINVELYFDATGHILPDSSSLKTDLELKYKQTADFSARGFMPSTTAYPFVLPNAGTHNENYIFGQCYYKASNGALFPLEVTVMLNKRLPDSRTSYVMTFLWSLNAGLAPETTQATLITSPFTFSYIREDD | – | – | – | 7 | 23.5 | 5.2
dimeric Ad3 fiber knob mutant S190P (designed binder, also called 5190P [sic]) MKVSALKEKVSALKEKVSALKEKVSALKEKVSALKEGSGGGSGGGSGGGSNSIALKNNTLWTGPKPEANCIIEYGKQNPDSKLTLILVKNGGIVNGYVTLMGASDYVNTLFKNKNVPINVELYFDATGHILPDSSSLKTDLELKYKQTADFSARGFMPSTTAYPFVLPNAGTHNENYIFGQCYYKASDGALFPLEVTVMLNKRLPDSRTSYVMTFLWSLNAGLAPETTQATLITSPFTFSYIREDD | – | – | – | 7.1 | 73.4 | 30.9
dimeric Ad3 fiber knob mutant L296R (designed binder) MKVSALKEKVSALKEKVSALKEKVSALKEKVSALKEGSGGGSGGGSGGGSNSIALKNNTLWTGPKPEANCIIEYGKQNPDSKLTLILVKNGGIVNGYVTLMGASDYVNTLFKNKNVSINVELYFDATGHILPDSSSLKTDLELKYKQTADFSARGFMPSTTAYPFVLPNAGTHNENYIFGQCYYKASDGALFPLEVTVMLNKRLPDSRTSYVMTFLWSLNAGRAPETTQATLITSPFTFSYIREDD | – | – | – | 3.6 | 73.7 | 5.1
dimeric Ad3 fiber knob mutant E299V (designed binder) MKVSALKEKVSALKEKVSALKEKVSALKEKVSALKEGSGGGSGGGSGGGSNSIALKNNTLWTGPKPEANCIIEYGKQNPDSKLTLILVKNGGIVNGYVTLMGASDYVNTLFKNKNVSINVELYFDATGHILPDSSSLKTDLELKYKQTADFSARGFMPSTTAYPFVLPNAGTHNENYIFGQCYYKASDGALFPLEVTVMLNKRLPDSRTSYVMTFLWSLNAGLAPVTTQATLITSPFTFSYIREDD | – | – | – | 20 | 97.3 | 50.7
dimeric Ad3 fiber knob mutant V189G (designed binder) MKVSALKEKVSALKEKVSALKEKVSALKEKVSALKEGSGGGSGGGSGGGSNSIALKNNTLWTGPKPEANCIIEYGKQNPDSKLTLILVKNGGIVNGYVTLMGASDYVNTLFKNKNGSINVELYFDATGHILPDSSSLKTDLELKYKQTADFSARGFMPSTTAYPFVLPNAGTHNENYIFGQCYYKASDGALFPLEVTVMLNKRLPDSRTSYVMTFLWSLNAGLAPETTQATLITSPFTFSYIREDD | – | – | – | 14 | 81 | 54
